For assay [1], the target named is actin filaments (contractile ring) (Schizosaccharomyces pombe, UniProt P10989). Nature of the assay: live-cell fluorescence titration.
In assay [2] the target is actin filaments (endocytic patches) (Schizosaccharomyces pombe, UniProt P10989). In words: live-cell fluorescence titration.

No end group written: not given here.

These results are taken from publication PMC5509211 (2017).

B1: mEGFP-Lifeact (peptide)
chain: MGVADLIKKFESISKEE
modifications: also: mEGFP fusion
Regarding B1, the dissociation constant Kd in assay [1] worked out at 6.2 µM; in assay [2], 20 µM.

As usually defined, the Kd is the free concentration of one partner at which half of the binding sites on the other are occupied at equilibrium, for simple one-to-one binding.
